Experimental data taken from patent US20190382504A1.

Tests used:
Assay in all cases: FACS, peptide-pulsed T2 cells
[1] = target: ESO157 A8 peptide (…)/HLA-A*02:01 complex on T2 cells (human)
[2] = target: ESO157 wild type peptide (…)/HLA-A*02:01 complex on cells (human)
[3] = target: ESO157 A4 peptide (…)/HLA-A*02:01 complex on T2 cells (human)
[4] = target: HLA-A*02:01 on T2 cells without peptide loading (human)
[5] = target: ESO157 A7 peptide (…)/HLA-A*02:01 complex on T2 cells (human)
[6] = target: ESO157 A1 peptide (…)/HLA-A*02:01 complex on T2 cells (human)
[7] = target: ESO157 A3 peptide (…)/HLA-A*02:01 complex on T2 cells (human)
[8] = target: ESO157 A6 peptide (…)/HLA-A*02:01 complex on T2 cells (human)
[9] = target: ESO157 A5 peptide (…)/HLA-A*02:01 complex on T2 cells (human)

Row | Substance | MFI [1] | MFI [2] | MFI [3] | MFI [4] | MFI [5] | MFI [6] | MFI [7] | MFI [8] | MFI [9]
1 | antibody BB7.2 | 75000 | 76000 | 60300 | 53100 | 72900 | 67000 | 66100 | 55800 | 59000
2 | KO7 helper phage | 94 | 136 | 97 | 97 | 84 | 92 | 100 | 91 | 101
